The text below walks through data of US20250188136A1, “AV3 MUTANT POLYPEPTIDES FOR PEST CONTROL” (Vestaron Corporation, priority 2021, published 2025).

Data set [1] in a line: Stability of purified peptide spiked into Av3b fermentation beer (rpHPLC). It counts as physicochemical. The protocol:
To determine the stability of the new mutants, Av3bM19, Av3bM23, Av3bM24, Av3bM25, Av3bM27, and Av3bM28 were purified and incubated in Av3b fermentation beer. The mutants were purified by cation-exchange chromatography using a GE SP-Sephadex C-25 column. The column was first calibrated with 30 mM sodium citrate buffer at pH 3.0. Then, the culture supernatant containing the secreted mutant peptide was loaded into the column to let the mutant peptide bind to the resin. The column was then washed with 30 mM sodium citrate buffer, pH 3.0, followed by washing with 30 mM sodium acetate, pH 4.0. Next, the bound mutant peptide was eluted by 1 M or 2 M NaCl with 30 mM sodium acetate, pH 4.0. The elution was then concentrated and buffer-exchanged to 30 mM sodium acetate, pH 4.0 using a 1 kD cutoff spin concentrator.
After purification, each of the mutants, Av3bM19, Av3bM23, Av3bM24, Av3bM25, Av3bM27, and Av3bM28, were evaluated for stability by spiking them into Av3b strain fermentation beer at pH 6.5. As a negative control, Av3b was evaluated in a pH 4.0 buffer. As a positive control, purified Av3b was evaluated by spiking into the same Av3b fermentation beer at pH 6.5. All stability experiments were performed at room temperature. […] The amount of peptide remaining relative to the beginning was determined by normalizing the peak area at different time to the one at 0 hour for each treatment. The degradation trend is visualized by the bar graph of the relative remaining peptide amount trend.

Data set [2] in a line: Circular dichroism assay, melting temperature. In kind it is physicochemical. The note with it: 10 mM Na3PO4 solution, pH 5.9; 20° C. to 98° C. The protocol:
A JASCO J-1500 CD spectrometer (JASCO, 28600 Mary's Court, Easton, MD 21601 USA) was used to measure the CD spectrum and the secondary structure information of the Av3bM24, Av3bM165, Av3bM103, and Av3bM170 peptides (with Av3b as a comparator). The peptides were prepared in 10 mM Na3PO4 solution, pH 5.9, and loaded into the cuvette for CD spectrum measurement. Measurements were processed with a light wavelength scan ranging from 180 nm to 250 nm, with a 1 nm interval; the temperature graduate changed from 20° C. to 98° C., with 2° C. interval.
In general terms: CD spectra are sensitive to the conformation of chiral molecules.

For a further data set, the system named is Spodoptera frugiperda. In words: Lepidoptera injection assay, fall armyworm (FAW). It counts as in vivo. The settings on record: third instar larva, 2 μL injection, scored at 24-hours post-injection. As for the experimental part: (§1) An injection assay was performed on Helicoverpa zea (corn earworm or “CEW”) and Spodoptera frugiperda (fall armyworm or “FAW”). Injections comprised a given Av3b mutant peptide combined with water to arrive at the planned dose. The Av3b mutants included Av3bM24; Av3bM165; Av3bM103; and Av3bM170. Av3b was used as a control.
(§2) Insects were reared on an artificial diet prepared from General Purpose Lepidoptera diet (Frontier Scientific, Newark, DE 19713, product No. F9772) according to the manufacturer's instructions. To perform the insect injection bioassay, 5 mL of hot diet was dispensed into the well of a rearing tray (Bio-Service Inc., Bio-RT-32), with 8 wells per injection treatment. The hot diet was then allowed to cool and solidify. Next, third instar larva were incubated on ice in order to immobilize them. Injections were prepared on a hand-microapplicator with injection solution (>100 μL) in 1-cc all-glass syringe having a 30 gauge straight needle. Air bubbles were removed from the syringe, and the syringe was set it up on the microapplicator. Injection volume was adjusted in the microapplicator at 2 μL.
(§3) To inject the larva, the insects were picked up and positioned close to the injection needle. The needle was allowed to penetrate the cuticle of the third pro-leg of the larva. The injection knob of the microapplicator was then rotated to inject a 2 μL solution into hemolymph from the third pro-leg. After injection the larva maintained on the needle for a few seconds to make sure the injected solution was absorbed. Then, the larva were gently removed from the needle and placed into the wells of prepared tray, along with 5 mL of solidified diet per well. Finally, the tray was sealed with vent covers.
(§4) Injected larva were incubated at 28° C. in an insect incubator, and scored at 24-hours post-injection based on their condition. Insect conditions were categorized as follows: alive (walking, eating, normal behavior); affected (showing toxic symptoms, such as tremors, writhing, unbalanced gait, or a combination thereof), knockdown (paralyzed albeit able to move with gentle poke); and dead (unmoving, discoloration, or a combination thereof).

The subject of another data set is Helicoverpa zea. In words: Lepidoptera injection assay, corn earworm (CEW). In kind it is in vivo. As for the experimental part:
as §1, §2, §3, §4

Data set [3] in a line: DASbox small-scale fermentation, degradation by HPLC and LC/MS. In kind it is physicochemical. The settings on record: DASbox fed batch fermentation runs. As for the experimental part:
DASbox® is a parallel bioreactor system (Eppendorf, 175 Freshwater Blvd, Enfield, CT 06082, USA). The DASbox system used here contains 8 fermentation vessels with 250 mL volume capacity, allowing 8 small scale fermentation runs simultaneously. The DASbox fermentation runs were performed according to the manufacturer's instructions, and using the fermentation conditions described herein.
The screening of the Av3b mutants was conducted using a fed batch process in aerobic bioreactor. Reactors were initially filled to ˜45% capacity with a rich culture media containing 5-20 g/L of a carbon source such as glucose, sorbitol, or lactose, 5-20 g/L phosphoric acid, 0.1-1.5 g/L Calcium sulfate, 5-15 g/L Potassium sulfate, 0.5-10 g/L Magnesium sulfate heptahydrate, 1-5 g/L potassium hydroxide, and 10-60 g/L of corn steep liquor. The temperature of the reactor was maintained between 25-35° C. for the duration of the fermentation. The pH was held constant between 4-5.5 with the addition of 15% ammonium hydroxide. Dissolved oxygen was held constant by sparging air between 0.5-1.5 volume/volume/min and by increasing agitation to maintain a set point of 10-30%.
Inoculation of the reactor was from an overnight seed culture containing 5-40 g/L of a carbon source such as glucose, sorbitol, or lactose, and 5-40 g/L of corn steep liquor. Inoculation percentage ranged from 5-20% of initial fill volume. Once inoculated, the reactor was fed with a 70% solution of the selected carbon source until the reactor was filled and/or desired supernatant peptide concentration was achieved, approximately 96-140 hours and 0.8-1.2 g/L, respectively.

Entries after “also recorded” stand apart in the source; their conditions may differ. Ends that are not written are not given here.

Regarding “KSCCPCYWGGCPWGQNCYPEGCDGPK (ends and bridges not checked; cysteine pairing not given here) [Av3bM24]”, in data set [1] (Av3b production fermentation beer pH 6.5, room temperature (Example 11, FIG. 37)), the half-degradation time came to 652 h. The peptide remaining in data set [1] (fermentation beer pH 6.5, room temperature, 248 hours, HPLC peak area relative to starting amount) came out at 84%. Further, the “resistance to fermentation beer protease cleavage compared to Av3b” value in data set [1] (spiked into Av3b fermentation beer pH 6.5, room temperature) was “greater resistance to yeast fermentation beer protease cleavage; also recorded: improved resistance to fermentation beer cleavage; also recorded: resist the degradation in Av3b fermentation beer”. For the same sequence, the “CD Melting temperature” value in data set [2] came out at 80 °C. Moreover, the “KD50 FAW” value with Spodoptera frugiperda was 949 pmol/g. Moreover, the “knock-down effects compared to Av3b” value in the data set with Helicoverpa zea (CEW and FAW injection, KD50) is given as “comparable knock-down effects to Av3b”. In addition, the “KD50 CEW” value in the data set on Helicoverpa zea (third instar larva, 2 μL injection, scored at 24-hours post-injection) is 428 ± 131 (N = 4) pmol/g. Moreover, the “degradation detected via HPLC and LC/MS” value in data set [3] is “degradation was detected”.
